From article PMC8899190, “Creating a Selective Nanobody Against 3-Nitrotyrosine Containing Proteins” (Frontiers in Chemistry, 2022) come the findings set out here.

Positions count from the first letter of the chain named. In names and notes the source's numbering stands.

Details in all cases: both partners purified
For experiment [1], the target named is T1, Avi-tagged, biotinylated h14-3-3ß_(nY130) (Homo sapiens, UniProt P31946, 3-nitrotyrosine at 130; biotin on the N-terminal Avi tag).
T1 construct: human 14-3-3 beta with 3-nitrotyrosine in place of Y130, from a pBAD-AVI-14-3-3-His plasmid; also called 14-3-3β_(nY130); 14-3-3_(nY130); source: E. coli BL21ai with genetic code expansion, co-expressed with GST-BirA, purified (TALON); not shown: Avi tag, N-terminal, kept
The experiment is described as follows: BLI; Nb-G5 (C115S) against nitrated and WT h14-3-3β; conditions of this experiment not told.

The target of experiment [2] is T2, h14-3-3ß_(nY130), His-tagged (Homo sapiens, UniProt P31946, 3-nitrotyrosine at 130).
T2 construct: human 14-3-3 beta with 3-nitrotyrosine in place of Y130 (amber suppression); Held on nickel-coated ELISA plates; also called 14-3-3β nitroY130; source: E. coli BL21ai with genetic code expansion, purified (TALON)
Briefly: far-Western, overlay or dot blot; 14-3-3 targets (0.5-5 µg) dotted on PVDF, probed with Nb-G5 diluted 1:3,000 in TBS at room temperature, detected with anti-llama HRP.

Experiment [3] deals with T3, h14-3-3ß_(nY213), His-tagged (Homo sapiens, UniProt P31946, 3-nitrotyrosine at 213).
T3 construct: human 14-3-3 beta with 3-nitrotyrosine in place of Y213 (amber suppression); also called nitrated human 14-3-3ß isoform nY213; source: E. coli BL21ai with genetic code expansion, purified (TALON)
The experiment is described as above.

For a further experiment, the target named is calmodulin WT (species ; human CALM1 entry, …, UniProt P0DP23). The experiment is described as follows: BLI; CaM forms on sensors (kind of sensor not told), Nb-G5 in solution (300 nM in Figure 3C); 0.05% Tween; local fits.

T2 sequence (P31946 whole entry): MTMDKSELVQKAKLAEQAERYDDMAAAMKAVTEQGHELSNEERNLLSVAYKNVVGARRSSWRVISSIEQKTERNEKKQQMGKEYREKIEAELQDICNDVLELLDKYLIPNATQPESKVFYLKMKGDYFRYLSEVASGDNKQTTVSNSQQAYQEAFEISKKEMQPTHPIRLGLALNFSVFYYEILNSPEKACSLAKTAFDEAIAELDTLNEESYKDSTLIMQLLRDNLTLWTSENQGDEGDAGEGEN
T1 sequence (P31946 whole entry): as above
T3 sequence (P31946 whole entry, canonical isoform): as the sequence (P31946 whole entry) above

B1: Nb-G5 (C115S) (VHH)
VHH: QVQLQESGGGLVQPGGSLRLSCAASKNIANFDSMAWYRRSPGKERDLVARLYSDGGTNYEDSVKGRFNISTDIEKNTVYLQMNNLKLEDTARYYCRADLGLFDTSEFPGQGTQVTVSS
notes: also called C115S mutant of Nb-G5
B1: in experiment [1], the “fold decrease of binding against Nb-G5” value stood at 6 fold.

B2: Nb-G5 (VHH)
VHH: B1 VHH with S105C
notes: alpaca nanobody from phage display; The methods describe two cleavable tags for nanobodies (His6-SUMO cut by ULP1, His-bdNEDD8 cut by bdNEDP1); also called anti-nitroTyr Nb; source: E. coli, purified (TALON, tag cleaved, Superdex 200 SEC)
Take B2: the binding result in experiment [2] is “binds”; in experiment [3], “binds”; with calmodulin WT, “no binding (tested: 300 nM)”.
